± gives the standard deviation of the averaged measurements.
test system: Saccharomyces cerevisiae; test: protein stability index of tFT-peptide fusion (C-terminal peptide) (PSI (0-1 scale)); higher = more stable (slower turnover); details: genetic background: wild type; temperature: 30 C
Protocol: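 Multiplexed protein stability (MPS) profiling in S. cerevisiae. Random 12-aa peptides (tFT-X12 library) are fused to the C-terminus of a sfGFP-mCherry tandem fluorescent timer, after mCherry and a GGGS linker. Cells are FACS-sorted into 8 mCherry/sfGFP bins and deep-sequenced. The protein stability index (PSI) is the read-weighted bin average, scaled from 0 (unstable) to 1 (stable). Only peptides with >10 reads are reported; cells were grown at 30 °C in SC-His with glucose.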
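Also: PSI is a weighted mean of sequencing reads over stability bins, variants kept only with over 10 reads, mCherry proximal and sfGFP distal, peptide attached via GGGS linker.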

Row | Sequence | protein stability index
1 | IRRTSENEEETW | 0.673 ± 0.043
2 | IRSLKTSPLMRG | 0.704 ± 0.043
3 | IRVATIQSTMYI | 0.643 ± 0.016
4 | IRWKEIIDKWSY | 0.844 ± 0.038
5 | ISCVLSTVGVGH | 0.663 ± 0.044
6 | ISHAGSVPDRSV | 0.701 ± 0.04
7 | ISIAATPHVSQP | 0.661 ± 0.054
8 | ISLTFNSNSKPM | 0.687 ± 0.053
9 | ISLTHAPKTGFY | 0.695 ± 0.008
10 | ISMASRAGILRG | 0.686 ± 0.049
11 | ISMSDFRLFAIW | 0.6646 ± 0.0047
12 | ISNPAVHNPAGG | 0.641 ± 0.017
13 | ISRLLVLCRDLT | 0.65 ± 0.033
14 | ISVSRLRMKDRN | 0.713 ± 0.22
15 | ISWLLSFLGVVF | 0.601 ± 0.046
16 | ITDCAFIPLTVD | 0.764 ± 0.095
17 | ITGGEKNKEESG | 0.698 ± 0.019
18 | ITIVIKQNVDKE | 0.564 ± 0.016
19 | ITPLVQRPSSLR | 0.689 ± 0.088
20 | ITRSEEAKWLCA | 0.685 ± 0.045
21 | ITSALRYLSAVG | 0.656 ± 0.022
22 | ITSITRFKVDSR | 0.628 ± 0.022
23 | ITTLRSLWVVGL | 0.609 ± 0.085
24 | IVCGMGDKGMHE | 0.698 ± 0.014
25 | IVGKMRRQKTKI | 0.685 ± 0.057

Row | Sequence | protein stability index
26 | IVNDEHVHTYTR | 0.743 ± 0.013
27 | IVNNVKYKNRNR | 0.715 ± 0.071
28 | IVWCAINYLFRS | 0.63 ± 0.054
29 | IWCSCWPGNWET | 0.823 ± 0.12
30 | IWGLDGKSISID | 0.751 ± 0.061
31 | IWGSILGVEANV | 0.685 ± 0.039
32 | IWLHFKGSRSLP | 0.703 ± 0.16
33 | IYPPALLSSSFL | 0.709 ± 0.093
34 | IYSGIYCVGAKH | 0.666 ± 0.03
35 | KADVSIRYGINN | 0.714 ± 0.074
36 | KARIADRKMWGN | 0.684 ± 0.017
37 | KASSGRASGSMA | 0.673 ± 0.09
38 | KAWGGEGRDAWG | 0.702 ± 0.069
39 | KCCRRPPPAFRS | 0.725 ± 0.034
40 | KCLDSARSSVLP | 0.651 ± 0.043
41 | KCPSLVHSNSTG | 0.71 ± 0.016
42 | KCSLVLTVARSY | 0.609 ± 0.014
43 | KCVQESIIKMMI | 0.763 ± 0.15
44 | KDCHPVSRYVRC | 0.707 ± 0.01
45 | KDFGYKKKNRRY | 0.734 ± 0.032
46 | KDGGRGGLNWCV | 0.745 ± 0.095
47 | KDNMQFLHLYAS | 0.707 ± 0.075
48 | KDRVGYKEIITG | 0.695 ± 0.028
49 | KEERGINNKKGK | 0.691 ± 0.071
50 | KEGARGGEASRR | 0.669 ± 0.031

Row | Sequence | protein stability index
51 | KEKKENKRKNTT | 0.699 ± 0.051
52 | KEKKLKIIQKGT | 0.578 ± 0.09
53 | KEKKQARVKKKK | 0.723 ± 0.022
54 | KEKRFTQKLIRA | 0.654 ± 0.095
55 | KENEKQRKSHKK | 0.687 ± 0.043
56 | KENIRPSESYKC | 0.668 ± 0.05
57 | KEQESKAISYPV | 0.718 ± 0.035
58 | KEQGEGKEKTDK | 0.682 ± 0.063
59 | KESLKDRTKINI | 0.692 ± 0.033
60 | KEWKSESTVLEV | 0.7468 ± 0.0054
61 | KFASNNMFTRYV | 0.745 ± 0.012
62 | KFMKEITIDGLT | 0.709 ± 0.055
63 | KFSFVVAVHAGL | 0.545 ± 0.024
64 | KFYIIKRLSGVE | 0.64 ± 0.029
65 | KGEGRNRRGVPR | 0.675 ± 0.019
66 | KGLKRNENGTMS | 0.638 ± 0.017
67 | KGQKIIKNKNPK | 0.644 ± 0.038
68 | KGRRQPSSESVM | 0.711 ± 0.014
69 | KGSLVLGSKCCR | 0.681 ± 0.047
70 | KGVGGSTSRGGE | 0.666 ± 0.047
71 | KHKKKRTRDHEE | 0.666 ± 0.012
72 | KHNRISEKHQKS | 0.643 ± 0.0095
73 | KHRSIRPYLKND | 0.72 ± 0.037
74 | KHSMGSFNNILN | 0.6674 ± 0.0032
75 | KIDKNHGILPNY | 0.679 ± 0.035

Row | Sequence | protein stability index
76 | KIEAHKKYKKHQ | 0.726 ± 0.026
77 | KINAKIYGSEKG | 0.654 ± 0.015
78 | KIRKYTKGQIMQ | 0.687 ± 0.007
79 | KITEKLGSPKTF | 0.654 ± 0.086
80 | KKEKGKKEKEKR | 0.668 ± 0.056
81 | KKEKKIRKKTVT | 0.732 ± 0.028
82 | KKEQIKINIKGK | 0.693 ± 0.03
83 | KKGACTQILQSL | 0.789 ± 0.19
84 | KKGKGKTETIKT | 0.695 ± 0.03
85 | KKGRRERRITNE | 0.695 ± 0.013
86 | KKHNGHNHQNNF | 0.684 ± 0.019
87 | KKIDQAKETSLS | 0.68 ± 0.011
88 | KKIEKENKKEKF | 0.611 ± 0.056
89 | KKIRKGIGNKHI | 0.651 ± 0.017
90 | KKKEKDKKTNKP | 0.684 ± 0.057
91 | KKKEKKKKNKLK | 0.74 ± 0.019
92 | KKKEKKNIHSKT | 0.646 ± 0.029
93 | KKKFNNFIKIIH | 0.631 ± 0.027
94 | KKKGDAKNKKKQ | 0.714 ± 0.067
95 | KKKHKKKKKKKE | 0.676 ± 0.073
96 | KKKKEIKKKKKT | 0.697 ± 0.06
97 | KKKKHKAKGKIG | 0.695 ± 0.049
98 | KKKKKKDQKNKK | 0.734 ± 0.057
99 | KKKKKKKGIILD | 0.737 ± 0.097
100 | KKKKKKKKKPEK | 0.708 ± 0.022

Row | Sequence | protein stability index
101 | KKKKKKKKRARY | 0.657 ± 0.0063
102 | KKKKKKKNKKRK | 0.683 ± 0.019
103 | KKKKKKKNRETK | 0.655 ± 0.042
104 | KKKKKKKTKKKK | 0.78 ± 0.034
105 | KKKKKKQEKNKK | 0.694 ± 0.042
106 | KKKKKKRQKNTK | 0.691 ± 0.03
107 | KKKKKSKIEKKD | 0.725 ± 0.077
108 | KKKKKSKKKTKT | 0.668 ± 0.0037
109 | KKKKKSKKQKKK | 0.733 ± 0.019
110 | KKKKKTKNIKKT | 0.794 ± 0.059
111 | KKKKQKIKKQRK | 0.63 ± 0.00095
112 | KKKKQKKKRKRE | 0.718 ± 0.028
113 | KKKKRKNNITKK | 0.74 ± 0.15
114 | KKKKTEKKKTKQ | 0.656 ± 0.035
115 | KKKKVKKQRISR | 0.713 ± 0.11
116 | KKKMINEKKKKD | 0.701 ± 0.025
117 | KKKNKNENKKPQ | 0.667 ± 0.021
118 | KKKNTRKTTNIK | 0.708 ± 0.026
119 | KKKQKKVSNKQT | 0.699 ± 0.044
120 | KKKRIRNEYKKR | 0.68 ± 0.0071
121 | KKKTSKVIIREG | 0.689 ± 0.0085
122 | KKKVAITPQQTR | 0.685 ± 0.23
123 | KKMKKASTAKEL | 0.678 ± 0.025
124 | KKNAHANKIGND | 0.639 ± 0.086
125 | KKNEKKNRKKKN | 0.71 ± 0.022

Row | Sequence | protein stability index
126 | KKNKKNQKKKNK | 0.663 ± 0.0072
127 | KKNKLKDSIKNI | 0.663 ± 0.016
128 | KKNKRMKVREKK | 0.609 ± 0.034
129 | KKNLKTKKRQNI | 0.66 ± 0.01
130 | KKNNKKNNKKKQ | 0.678 ± 0.078
131 | KKNQKKNEKHIK | 0.689 ± 0.041
132 | KKQKKKKKRNRK | 0.654 ± 0.028
133 | KKRKKKEKKRKK | 0.773 ± 0.17
134 | KKRRTKKENNNI | 0.687 ± 0.0089
135 | KKSRLRNNPADC | 0.7 ± 0.031
136 | KKTKNKKRIIRT | 0.724 ± 0.051
137 | KKTLWRKITMQK | 0.7193 ± 0.0057
138 | KKTYQQKIEEVV | 0.782 ± 0.14
139 | KKVKMIKEIRRG | 0.745 ± 0.044
140 | KKVLKFTKKKKP | 0.599 ± 0.048
141 | KLGNVRGPSYSL | 0.709 ± 0.056
142 | KLGRIWNFTLSA | 0.6284 ± 0.001
143 | KLKKKKISNVEN | 0.612 ± 0.0081
144 | KLNMLLYNNQEK | 0.631 ± 0.039
145 | KLREYGGLPISC | 0.677 ± 0.0087
146 | KMKRSNADAVEP | 0.678 ± 0.03
147 | KNAAGERGGKEG | 0.644 ± 0.044
148 | KNCKEQRKTIQI | 0.713 ± 0.026
149 | KNDRKLIKRILK | 0.728 ± 0.093
150 | KNEKNERKIATQ | 0.682 ± 0.016

Row | Sequence | protein stability index
151 | KNESIRKKKPKK | 0.734 ± 0.033
152 | KNGANREEYITK | 0.686 ± 0.028
153 | KNIERKKNTKIR | 0.714 ± 0.017
154 | KNIRKITHGIGN | 0.623 ± 0.072
155 | KNKKKKKRRTRK | 0.732 ± 0.067
156 | KNQLKKPINKSK | 0.734 ± 0.13
157 | KNRKSPSMNSKE | 0.716 ± 0.017
158 | KNTKKKNRKKKN | 0.7419 ± 0.0026
159 | KNTNQKKKKKNT | 0.718 ± 0.044
160 | KNVKETERKVTS | 0.565 ± 0.023
161 | KPKKKKKDEQTI | 0.672 ± 0.035
162 | KPPNRQCLYDAL | 0.721 ± 0.094
163 | KPVGLPGRIRLG | 0.751 ± 0.02
164 | KQKKKRKSRRKK | 0.6504 ± 0.0033
165 | KQKKTQKIYTMR | 0.728 ± 0.059
166 | KQKNKTNKKNTK | 0.661 ± 0.025
167 | KQLEKRKRIIEE | 0.7644 ± 0.0035
168 | KQLPVLSAEVLS | 0.648 ± 0.035
169 | KQNAHKKINKYE | 0.75 ± 0.02
170 | KQSNGEFNIATP | 0.648 ± 0.046
171 | KQTEKEPKKGES | 0.7123 ± 0.0028
172 | KRCHPVYVRGGG | 0.568 ± 0.013
173 | KRDFILFSASVD | 0.627 ± 0.051
174 | KRDVRRLYRKRV | 0.7052 ± 0.0068
175 | KRGKKNEESRRD | 0.68 ± 0.085

Row | Sequence | protein stability index
176 | KRIVGIFINRKI | 0.586 ± 0.0096
177 | KRKEKKKEKRRK | 0.714 ± 0.022
178 | KRKKKKEQTKKK | 0.752 ± 0.11
179 | KRKKKRQKNKGK | 0.766 ± 0.13
180 | KRKKQERKREKK | 0.692 ± 0.05
181 | KRKKQKKNQQNR | 0.682 ± 0.019
182 | KRKRKKKSEKEE | 0.652 ± 0.025
183 | KRLKRKSNLERE | 0.69 ± 0.047
184 | KRMKNELDIGMK | 0.7049 ± 0.0032
185 | KRNIKKKKTNLR | 0.675 ± 0.087
186 | KRNKDFIYTYRL | 0.696 ± 0.013
187 | KRQWAGRDGEGR | 0.662 ± 0.0068
188 | KRRGECEGGRRG | 0.672 ± 0.044
189 | KRRKKTQESSKA | 0.726 ± 0.049
190 | KRSNKGAKKKGK | 0.672 ± 0.041
191 | KRTEHTHDRKIK | 0.721 ± 0.034
192 | KSILTRTVNSNQ | 0.6592 ± 0.0031
193 | KSKKDQKKNHKK | 0.712 ± 0.0076
194 | KSNRCVQSKRQQ | 0.686 ± 0.037
195 | KTERRKEENTGE | 0.665 ± 0.041
196 | KTGIQTEIRYKE | 0.63727 ± 0.00029

From the supplement of paper PMC10724198
